In PMC10397247:
Blank lines part the entries; values can stand above or below the binder they belong to.

Legend:
4H3497-bH = target: T1, 4H3497-bH; experiment: two-hybrid library CCNG1;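 note: natural log of median RNA to DNA barcode read ratio; higher means stronger binding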
T1 chain: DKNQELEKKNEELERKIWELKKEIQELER

4H906-bH = target: T2, 4H906-bH; experiment: two-hybrid library CCNG1;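 note: natural log of median RNA to DNA barcode read ratio; higher means stronger binding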
T2 chain: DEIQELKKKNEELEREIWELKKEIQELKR

4H626-bH = target: T3, 4H626-bH; experiment: two-hybrid library CCNG1;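 note: natural log of median RNA to DNA barcode read ratio; higher means stronger binding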
T3 chain: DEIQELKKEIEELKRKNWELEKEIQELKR

4H3628-bH = target: T4, 4H3628-bH; experiment: two-hybrid library CCNG1;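 note: natural log of median RNA to DNA barcode read ratio; higher means stronger binding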
T4 chain: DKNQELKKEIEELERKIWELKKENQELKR

4H591-bH = target: T5, 4H591-bH; experiment: two-hybrid library CCNG1;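 note: natural log of median RNA to DNA barcode read ratio; higher means stronger binding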
T5 chain: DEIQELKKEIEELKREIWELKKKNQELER

4H3926-bH = target: T6, 4H3926-bH; experiment: two-hybrid library CCNG1;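 note: natural log of median RNA to DNA barcode read ratio; higher means stronger binding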
T6 chain: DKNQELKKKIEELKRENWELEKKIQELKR

4H3613-bH = target: T7, 4H3613-bH; experiment: two-hybrid library CCNG1
T7 chain: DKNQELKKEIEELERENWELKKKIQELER

4H3974-bH = target: T8, 4H3974-bH; experiment: two-hybrid library CCNG1
T8 chain: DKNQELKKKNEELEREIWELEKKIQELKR

4H3817-bH = target: T9, 4H3817-bH; experiment: two-hybrid library CCNG1
T9 chain: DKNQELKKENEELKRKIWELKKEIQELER

4H3858-bH = target: T10, 4H3858-bH; experiment: two-hybrid library CCNG1
T10 chain: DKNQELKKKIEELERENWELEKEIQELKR

4H570-bH = target: T11, 4H570-bH; experiment: two-hybrid library CCNG1
T11 chain: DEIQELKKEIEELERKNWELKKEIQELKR

4H850-bH = target: T12, 4H850-bH; experiment: two-hybrid library CCNG1
T12 chain: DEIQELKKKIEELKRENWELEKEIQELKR

APC542-AA = target: T13, APC542-AA; experiment: two-hybrid library CCmax; settings: mean of both orientations
T13 chain: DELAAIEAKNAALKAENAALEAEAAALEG

APC5009-AA = target: T14, APC5009-AA; experiment: two-hybrid library CCmax; settings: mean of both orientations
T14 chain: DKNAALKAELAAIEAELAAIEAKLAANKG

APC3354-AA = target: T15, APC3354-AA; experiment: two-hybrid library CCmax; settings: mean of both orientations
T15 chain: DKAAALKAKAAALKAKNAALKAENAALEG

APC3323-AA = target: T16, APC3323-AA; experiment: two-hybrid library CCmax; settings: mean of both orientations
T16 chain: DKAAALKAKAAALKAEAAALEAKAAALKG

APC8401-AA = target: T17, APC8401-AA; experiment: two-hybrid library CCmax; settings: mean of both orientations
T17 chain: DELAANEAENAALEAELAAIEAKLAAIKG

APC9806-AA = target: T18, APC9806-AA; experiment: two-hybrid library CCmax; settings: mean of both orientations
T18 chain: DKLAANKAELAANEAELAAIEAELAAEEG

APC9141-AA = target: T19, APC9141-AA; experiment: two-hybrid library CCmax; settings: mean of both orientations
T19 chain: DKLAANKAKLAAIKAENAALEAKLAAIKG

APC4336-AA = target: T20, APC4336-AA; experiment: two-hybrid library CCmax; settings: mean of both orientations
T20 chain: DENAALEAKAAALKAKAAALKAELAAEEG

APC9182-AA = target: T21, APC9182-AA; experiment: two-hybrid library CCmax; settings: mean of both orientations
T21 chain: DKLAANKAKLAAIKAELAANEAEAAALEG

APC9291-AA = target: T22, APC9291-AA; experiment: two-hybrid library CCmax; settings: mean of both orientations
T22 chain: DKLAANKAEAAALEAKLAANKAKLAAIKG

APC4100-AA = target: T23, APC4100-AA; experiment: two-hybrid library CCmax; settings: mean of both orientations
T23 chain: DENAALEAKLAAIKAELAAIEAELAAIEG

APC6088-AA = target: T24, APC6088-AA; experiment: two-hybrid library CCmax; settings: mean of both orientations
T24 chain: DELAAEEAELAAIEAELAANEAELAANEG

APC2981-AA = target: T25, APC2981-AA; experiment: two-hybrid library CCmax
T25 chain: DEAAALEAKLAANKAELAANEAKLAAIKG

APC3265-AA = target: T26, APC3265-AA; experiment: two-hybrid library CCmax; settings: mean of both orientations
T26 chain: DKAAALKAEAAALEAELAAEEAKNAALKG

APC5531-AA = target: T27, APC5531-AA; experiment: two-hybrid library CCmax; settings: mean of both orientations
T27 chain: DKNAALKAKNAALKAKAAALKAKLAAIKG

APC3881-AA = target: T28, APC3881-AA; experiment: two-hybrid library CCmax; settings: mean of both orientations
T28 chain: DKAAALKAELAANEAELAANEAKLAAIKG

APC8516-AA = target: T29, APC8516-AA; experiment: two-hybrid library CCmax; settings: mean of both orientations
T29 chain: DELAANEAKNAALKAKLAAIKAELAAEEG

APC7524-AA = target: T30, APC7524-AA; experiment: two-hybrid library CCmax; settings: mean of both orientations
T30 chain: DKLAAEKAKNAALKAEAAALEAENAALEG

interaction score (4H3497-bH): -1.02 | interaction score (4H906-bH): -0.345 | interaction score (4H626-bH): -0.895 | interaction score (4H3628-bH): 0.758 | interaction score (4H591-bH): -1.46 | interaction score (4H3926-bH): -0.573 | interaction score (4H3613-bH): -0.463
Binder: DKNQELEKKNEELERKIWELKKEIQELER [4H3497-bH]

interaction score (4H906-bH): -1.07 | interaction score (4H3974-bH): -1.15 | interaction score (4H3817-bH): -0.0066 | interaction score (4H3858-bH): 0.0148 | interaction score (4H626-bH): -1.94 | interaction score (4H3628-bH): -0.609 | interaction score (4H591-bH): -2.09 | interaction score (4H570-bH): -0.821 | interaction score (4H3926-bH): 1.59 | interaction score (4H3613-bH): 0.898 | interaction score (4H850-bH): 1.37
Binder: DKNQELKKEIEELERENWELKKKIQELER [4H3613-bH]

interaction score (APC542-AA): -1.62 | interaction score (APC5009-AA): -1.75 | interaction score (APC3354-AA): -2.3 | interaction score (APC3323-AA): -1.68 | interaction score (APC8401-AA): -1.71 | interaction score (APC9806-AA): -1.51 | interaction score (APC9141-AA): -1.53 | interaction score (APC4336-AA): -2.05 | interaction score (APC9182-AA): -1.76 | interaction score (APC9291-AA): -1.74 | interaction score (APC4100-AA): -1.62 | interaction score (APC6088-AA): -1.49 | interaction score (APC2981-AA): -1.58 | interaction score (APC3265-AA): -1.62 | interaction score (APC5531-AA): -1.79 | interaction score (APC3881-AA): -1.67 | interaction score (APC8516-AA): -1.73 | interaction score (APC7524-AA): -1.71
Binder: DEAAALEAKLAANKAELAANEAKLAAIKG [APC2981-AA]
